# Biological target: FACT complex (SPT16/SSRP1), full length, untreated (human) (UniProt Q9Y5B9)
# Test: SEC; analytical SEC of CCAN with different amounts of FACT; peak fractions on SDS-PAGE with TCE, tryptophan fluorescence of the bands normalised to the number of tryptophans and to SPT16
# Chain of FACT complex (SPT16/SSRP1), full length, untreated (human) (Q9Y5B9 whole entry, chain 1 of 2): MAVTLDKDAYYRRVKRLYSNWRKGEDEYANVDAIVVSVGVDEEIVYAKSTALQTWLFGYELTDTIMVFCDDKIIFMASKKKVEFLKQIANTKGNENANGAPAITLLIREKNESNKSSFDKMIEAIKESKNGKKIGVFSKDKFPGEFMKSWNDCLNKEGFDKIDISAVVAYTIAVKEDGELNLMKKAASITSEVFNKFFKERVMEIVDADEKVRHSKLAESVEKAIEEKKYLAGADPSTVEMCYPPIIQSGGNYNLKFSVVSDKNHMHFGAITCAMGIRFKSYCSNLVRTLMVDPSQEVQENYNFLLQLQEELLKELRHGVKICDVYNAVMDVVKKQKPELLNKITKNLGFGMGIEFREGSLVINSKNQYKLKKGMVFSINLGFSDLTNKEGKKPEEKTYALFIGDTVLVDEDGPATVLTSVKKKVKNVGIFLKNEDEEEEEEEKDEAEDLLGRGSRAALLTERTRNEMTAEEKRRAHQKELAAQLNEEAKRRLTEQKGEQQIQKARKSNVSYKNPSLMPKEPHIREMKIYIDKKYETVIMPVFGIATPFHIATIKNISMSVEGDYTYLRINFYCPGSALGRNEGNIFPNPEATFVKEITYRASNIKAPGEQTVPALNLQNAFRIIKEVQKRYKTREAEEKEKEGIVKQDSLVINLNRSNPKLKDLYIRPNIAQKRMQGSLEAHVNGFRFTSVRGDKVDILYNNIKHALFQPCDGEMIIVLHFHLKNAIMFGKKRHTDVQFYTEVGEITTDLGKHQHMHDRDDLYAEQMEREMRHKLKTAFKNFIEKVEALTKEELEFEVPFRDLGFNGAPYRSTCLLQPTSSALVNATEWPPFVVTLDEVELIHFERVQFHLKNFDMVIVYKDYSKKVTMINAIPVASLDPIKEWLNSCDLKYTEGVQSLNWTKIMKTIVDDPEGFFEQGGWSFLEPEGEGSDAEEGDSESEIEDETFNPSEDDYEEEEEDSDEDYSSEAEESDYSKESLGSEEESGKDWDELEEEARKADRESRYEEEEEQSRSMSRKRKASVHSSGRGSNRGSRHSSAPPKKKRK
# Chain of FACT complex (SPT16/SSRP1), full length, untreated (human) (Q08945 whole entry, chain 2 of 2, further chain): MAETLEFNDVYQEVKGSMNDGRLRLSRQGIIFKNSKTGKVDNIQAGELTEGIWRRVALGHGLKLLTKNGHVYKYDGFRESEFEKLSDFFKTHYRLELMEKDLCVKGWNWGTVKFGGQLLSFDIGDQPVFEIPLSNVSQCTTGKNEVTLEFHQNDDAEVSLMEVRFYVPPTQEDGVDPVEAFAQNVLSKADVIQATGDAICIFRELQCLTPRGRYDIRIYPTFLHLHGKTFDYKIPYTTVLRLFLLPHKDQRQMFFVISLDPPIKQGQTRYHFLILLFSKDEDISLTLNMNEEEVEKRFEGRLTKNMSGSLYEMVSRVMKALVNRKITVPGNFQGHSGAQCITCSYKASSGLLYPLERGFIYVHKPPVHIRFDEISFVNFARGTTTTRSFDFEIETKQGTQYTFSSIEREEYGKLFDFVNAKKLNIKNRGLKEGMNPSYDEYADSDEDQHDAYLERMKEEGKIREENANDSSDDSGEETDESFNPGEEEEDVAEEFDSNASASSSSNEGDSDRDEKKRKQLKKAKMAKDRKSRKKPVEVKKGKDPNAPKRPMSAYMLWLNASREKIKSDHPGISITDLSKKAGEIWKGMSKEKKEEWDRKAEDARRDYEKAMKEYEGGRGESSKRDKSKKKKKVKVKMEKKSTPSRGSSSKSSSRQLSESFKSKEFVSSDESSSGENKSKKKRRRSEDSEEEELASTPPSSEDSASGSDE
substance,measurement,value
"CCAN, 16-subunit constitutive centromere-associated network reconstituted with CENP-C^2–545 (from UniProt Q03188 2-545; Q9H3R5 1-247; Q92674 1-756; Q9BS16 1-269; Q9NSP4 1-180; Q8N0S6 1-344; Q96H22 1-339; Q9BU64 1-300; Q6IPU0 1-288; Q7L2Z9 1-268; Q71F23 1-418; Q13352 1-177; Q96BT3 1-561; Q5EE01 1-88; Q8N2Z9 1-138; A8MT69 1-81) (complex)",stoichiometry N (FACT per CCAN),1

# — article PMC11912937
